# Reference: the supplement of paper PMC6755084
# B1: F1*; the commonest letter at each place (parent)
# chain: GAGACCGCAACTGAAAAGTTGTTATCACTTGTCGTAAGACACTTTGGATGGGTTGAAGTTCTGCACGTAGAAGCAAAAGGC
# Variants of: B1
# Experiment: fraction ligated after 30 min (ligated reads / total reads); higher = more ligase activity
# Conditions: with F1*sub RNA substrate (template-directed ligation), 42 °C
# Procedure, shortened: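 Templates from an oligo pool were PCR-amplified, transcribed with T7 and gel-purified to give the ribozyme variants. Ligated and unligated products were separated on gel, reverse transcribed using barcoded primers, and read on a MiSeq. A quality filter of ≥20 was applied to core bases. Fraction ligated was taken as ligated reads as a share of all reads per variant.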
row,Variant,fraction ligated
1,GAGACCGCAACTGAAAAGTTGTTATCACTTGTCGTAAGACTCTTTGGATGGGTTGCAGTTCTGCACGTAGAAGCAAAAGGC [A41T A56C],0.784
2,GAGACCGCAACTGAAAAGTTGTTATCACTTGTCGTAAGACTCTTTGGATGGGTTGGAGTTCTGCACGTAGAAGCAAAAGGC [A41T A56G],0.778
3,GAGACCGCAACTGAAAAGTTGTTATCACTTGTCGTAAGACTCTTTGGATGGGTTGTAGTTCTGCACGTAGAAGCAAAAGGC [A41T A56T],0.792
4,GAGACCGCAACTGAAAAGTTGTTATCACTTGTCGTAAGACGCTTTGGAAGGGTTGAAGTTCTGCACGTAGAAGCAAAAGGC [A41G T49A],0.671
5,GAGACCGCAACTGAAAAGTTGTTATCACTTGTCGTAAGACGCTTTGGACGGGTTGAAGTTCTGCACGTAGAAGCAAAAGGC [A41G T49C],0.564
6,GAGACCGCAACTGAAAAGTTGTTATCACTTGTCGTAAGACGCTTTGGAGGGGTTGAAGTTCTGCACGTAGAAGCAAAAGGC [A41G T49G],0.739
7,GAGACCGCAACTGAAAAGTTGTTATCACTTGTCGTAAGACAAATTGGATGGGTTGAAGTTCTGCACGTAGAAGCAAAAGGC [C42A T43A],0.82
8,GAGACCGCAACTGAAAAGTTGTTATCACTTGTCGTAAGACTCTTTGGATAGGTTGAAGTTCTGCACGTAGAAGCAAAAGGC [A41T G50A],0.342
9,GAGACCGCAACTGAAAAGTTGTTATCACTTGTCGTAAGACTCTTTGGATTGGTTGAAGTTCTGCACGTAGAAGCAAAAGGC [A41T G50T],0.715
10,GAGACCGCAACTGAAAAGTTGTTATCACTTGTCGTAAGACTCTTTGGATCGGTTGAAGTTCTGCACGTAGAAGCAAAAGGC [A41T G50C],0.268
11,GAGACCGCAACTGAAAAGTTGTTATCACTTGTCGTAAGACGCTTAGGATGGGTTGAAGTTCTGCACGTAGAAGCAAAAGGC [A41G T45A],0.482
12,GAGACCGCAACTGAAAAGTTGTTATCACTTGTCGTAAGACGCTTGGGATGGGTTGAAGTTCTGCACGTAGAAGCAAAAGGC [A41G T45G],0.119
13,GAGACCGCAACTGAAAAGTTGTTATCACTTGTCGTAAGACGCTTCGGATGGGTTGAAGTTCTGCACGTAGAAGCAAAAGGC [A41G T45C],0.541
14,GAGACCGCAACTGAAAAGTTGTTATCACTTGTCGTAAGACTATTTGGATGGGTTGAAGTTCTGCACGTAGAAGCAAAAGGC [A41T C42A],0.849
15,GAGACCGCAACTGAAAAGTTGTTATCACTTGTCGTAAGACTTTTTGGATGGGTTGAAGTTCTGCACGTAGAAGCAAAAGGC [A41T C42T],0.848
16,GAGACCGCAACTGAAAAGTTGTTATCACTTGTCGTAAGACTGTTTGGATGGGTTGAAGTTCTGCACGTAGAAGCAAAAGGC [A41T C42G],0.836
17,GAGACCGCAACTGAAAAGTTGTTATCACTTGTCGTAAGACTCCTTGGATGGGTTGAAGTTCTGCACGTAGAAGCAAAAGGC [A41T T43C],0.773
18,GAGACCGCAACTGAAAAGTTGTTATCACTTGTCGTAAGACTCATTGGATGGGTTGAAGTTCTGCACGTAGAAGCAAAAGGC [A41T T43A],0.822
19,GAGACCGCAACTGAAAAGTTGTTATCACTTGTCGTAAGACTCGTTGGATGGGTTGAAGTTCTGCACGTAGAAGCAAAAGGC [A41T T43G],0.803
20,GAGACCGCAACTGAAAAGTTGTTATCACTTGTCGTAAGACTCTTTGAATGGGTTGAAGTTCTGCACGTAGAAGCAAAAGGC [A41T G47A],0.783
21,GAGACCGCAACTGAAAAGTTGTTATCACTTGTCGTAAGACTCTTTGTATGGGTTGAAGTTCTGCACGTAGAAGCAAAAGGC [A41T G47T],0.418
22,GAGACCGCAACTGAAAAGTTGTTATCACTTGTCGTAAGACTCTTTGCATGGGTTGAAGTTCTGCACGTAGAAGCAAAAGGC [A41T G47C],0.211
23,GAGACCGCAACTGAAAAGTTGTTATCACTTGTCGTAAGACAATTTGGATGGGTTAAAGTTCTGCACGTAGAAGCAAAAGGC [C42A G55A],0.837

row,Variant,fraction ligated
1,GAGACCGCAACTGAAAAGTTGTTATCACTTGTCGTAAGACAATTTGGATGGGTTCAAGTTCTGCACGTAGAAGCAAAAGGC [C42A G55C],0.746
2,GAGACCGCAACTGAAAAGTTGTTATCACTTGTCGTAAGACAATTTGGATGGGTTTAAGTTCTGCACGTAGAAGCAAAAGGC [C42A G55T],0.814
3,GAGACCGCAACTGAAAAGTTGTTATCACTTGTCGTAAGACAATTTGGATGGGTTGTAGTTCTGCACGTAGAAGCAAAAGGC [C42A A56T],0.798
4,GAGACCGCAACTGAAAAGTTGTTATCACTTGTCGTAAGACAATTTGGATGGGTTGCAGTTCTGCACGTAGAAGCAAAAGGC [C42A A56C],0.794
5,GAGACCGCAACTGAAAAGTTGTTATCACTTGTCGTAAGACAATTTGGATGGGTTGGAGTTCTGCACGTAGAAGCAAAAGGC [C42A A56G],0.781
6,GAGACCGCAACTGAAAAGTTGTTATCACTTGTCGTAAGACAATTTGGTTGGGTTGAAGTTCTGCACGTAGAAGCAAAAGGC [C42A A48T],0.803
7,GAGACCGCAACTGAAAAGTTGTTATCACTTGTCGTAAGACAATTTGGCTGGGTTGAAGTTCTGCACGTAGAAGCAAAAGGC [C42A A48C],0.761
8,GAGACCGCAACTGAAAAGTTGTTATCACTTGTCGTAAGACAATTTGGGTGGGTTGAAGTTCTGCACGTAGAAGCAAAAGGC [C42A A48G],0.785
9,GAGACCGCAACTGAAAAGTTGTTATCACTTGTCGTAAGACAATTTGGATGGGTTGATGTTCTGCACGTAGAAGCAAAAGGC [C42A A57T],0.848
10,GAGACCGCAACTGAAAAGTTGTTATCACTTGTCGTAAGACAATTTGGATGGGTTGACGTTCTGCACGTAGAAGCAAAAGGC [C42A A57C],0.797
11,GAGACCGCAACTGAAAAGTTGTTATCACTTGTCGTAAGACAATTTGGATGGGTTGAGGTTCTGCACGTAGAAGCAAAAGGC [C42A A57G],0.794
12,GAGACCGCAACTGAAAAGTTGTTATCACTTGTCGTAAGACTCTTTGGATGGGTTAAAGTTCTGCACGTAGAAGCAAAAGGC [A41T G55A],0.809
13,GAGACCGCAACTGAAAAGTTGTTATCACTTGTCGTAAGACTCTTTGGATGGGTTTAAGTTCTGCACGTAGAAGCAAAAGGC [A41T G55T],0.81
14,GAGACCGCAACTGAAAAGTTGTTATCACTTGTCGTAAGACTCTTTGGATGGGTTCAAGTTCTGCACGTAGAAGCAAAAGGC [A41T G55C],0.706
15,GAGACCGCAACTGAAAAGTTGTTATCACTTGTCGTAAGACAATTTGGATGGGTTGAAGTTCTGCACGTAGAAGCAAAAGGC [C42A],0.84
16,GAGACCGCAACTGAAAAGTTGTTATCACTTGTCGTAAGACTCTCTGGATGGGTTGAAGTTCTGCACGTAGAAGCAAAAGGC [A41T T44C],0.806
17,GAGACCGCAACTGAAAAGTTGTTATCACTTGTCGTAAGACTCTGTGGATGGGTTGAAGTTCTGCACGTAGAAGCAAAAGGC [A41T T44G],0.8
18,GAGACCGCAACTGAAAAGTTGTTATCACTTGTCGTAAGACTCTATGGATGGGTTGAAGTTCTGCACGTAGAAGCAAAAGGC [A41T T44A],0.815
19,GAGACCGCAACTGAAAAGTTGTTATCACTTGTCGTAAGACAATTTGGATCGGTTGAAGTTCTGCACGTAGAAGCAAAAGGC [C42A G50C],0.239
20,GAGACCGCAACTGAAAAGTTGTTATCACTTGTCGTAAGACAATTTGGATTGGTTGAAGTTCTGCACGTAGAAGCAAAAGGC [C42A G50T],0.658
21,GAGACCGCAACTGAAAAGTTGTTATCACTTGTCGTAAGACAATTTGGATAGGTTGAAGTTCTGCACGTAGAAGCAAAAGGC [C42A G50A],0.345
22,GAGACCGCAACTGAAAAGTTGTTATCACTTGTCGTAAGACTCTTAGGATGGGTTGAAGTTCTGCACGTAGAAGCAAAAGGC [A41T T45A],0.741
23,GAGACCGCAACTGAAAAGTTGTTATCACTTGTCGTAAGACTCTTCGGATGGGTTGAAGTTCTGCACGTAGAAGCAAAAGGC [A41T T45C],0.428

row,Variant,fraction ligated
1,GAGACCGCAACTGAAAAGTTGTTATCACTTGTCGTAAGACTCTTGGGATGGGTTGAAGTTCTGCACGTAGAAGCAAAAGGC [A41T T45G],0.283
2,GAGACCGCAACTGAAAAGTTGTTATCACTTGTCGTAAGACGCTGTGGATGGGTTGAAGTTCTGCACGTAGAAGCAAAAGGC [A41G T44G],0.809
3,GAGACCGCAACTGAAAAGTTGTTATCACTTGTCGTAAGACGCTCTGGATGGGTTGAAGTTCTGCACGTAGAAGCAAAAGGC [A41G T44C],0.76
4,GAGACCGCAACTGAAAAGTTGTTATCACTTGTCGTAAGACTCTTTGGATGGGTTGAAGTTCTGCACGTAGAAGCAAAAGGC [A41T],0.837
5,GAGACCGCAACTGAAAAGTTGTTATCACTTGTCGTAAGACAATTTAGATGGGTTGAAGTTCTGCACGTAGAAGCAAAAGGC [C42A G46A],0.821
6,GAGACCGCAACTGAAAAGTTGTTATCACTTGTCGTAAGACAATTTCGATGGGTTGAAGTTCTGCACGTAGAAGCAAAAGGC [C42A G46C],0.811
7,GAGACCGCAACTGAAAAGTTGTTATCACTTGTCGTAAGACAATTTTGATGGGTTGAAGTTCTGCACGTAGAAGCAAAAGGC [C42A G46T],0.789
8,GAGACCGCAACTGAAAAGTTGTTATCACTTGTCGTAAGACTCTTTGGAAGGGTTGAAGTTCTGCACGTAGAAGCAAAAGGC [A41T T49A],0.686
9,GAGACCGCAACTGAAAAGTTGTTATCACTTGTCGTAAGACTCTTTGGAGGGGTTGAAGTTCTGCACGTAGAAGCAAAAGGC [A41T T49G],0.749
10,GAGACCGCAACTGAAAAGTTGTTATCACTTGTCGTAAGACTCTTTGGACGGGTTGAAGTTCTGCACGTAGAAGCAAAAGGC [A41T T49C],0.658
11,GAGACCGCAACTGAAAAGTTGTTATCACTTGTCGTAAGACTCTTTGGATGGGTTGACGTTCTGCACGTAGAAGCAAAAGGC [A41T A57C],0.787
12,GAGACCGCAACTGAAAAGTTGTTATCACTTGTCGTAAGACTCTTTGGATGGGTTGATGTTCTGCACGTAGAAGCAAAAGGC [A41T A57T],0.808
13,GAGACCGCAACTGAAAAGTTGTTATCACTTGTCGTAAGACTCTTTGGATGGGTTGAGGTTCTGCACGTAGAAGCAAAAGGC [A41T A57G],0.807
14,GAGACCGCAACTGAAAAGTTGTTATCACTTGTCGTAAGACTCTTTAGATGGGTTGAAGTTCTGCACGTAGAAGCAAAAGGC [A41T G46A],0.804
15,GAGACCGCAACTGAAAAGTTGTTATCACTTGTCGTAAGACTCTTTTGATGGGTTGAAGTTCTGCACGTAGAAGCAAAAGGC [A41T G46T],0.787
16,GAGACCGCAACTGAAAAGTTGTTATCACTTGTCGTAAGACTCTTTCGATGGGTTGAAGTTCTGCACGTAGAAGCAAAAGGC [A41T G46C],0.792
17,GAGACCGCAACTGAAAAGTTGTTATCACTTGTCGTAAGACTCTTTGGCTGGGTTGAAGTTCTGCACGTAGAAGCAAAAGGC [A41T A48C],0.73
18,GAGACCGCAACTGAAAAGTTGTTATCACTTGTCGTAAGACTCTTTGGTTGGGTTGAAGTTCTGCACGTAGAAGCAAAAGGC [A41T A48T],0.345
19,GAGACCGCAACTGAAAAGTTGTTATCACTTGTCGTAAGACTCTTTGGGTGGGTTGAAGTTCTGCACGTAGAAGCAAAAGGC [A41T A48G],0.762
20,GAGACCGCAACTGAAAAGTTGTTATCACTTGTCGTAAGACAATTTGAATGGGTTGAAGTTCTGCACGTAGAAGCAAAAGGC [C42A G47A],0.832
21,GAGACCGCAACTGAAAAGTTGTTATCACTTGTCGTAAGACAATTTGTATGGGTTGAAGTTCTGCACGTAGAAGCAAAAGGC [C42A G47T],0.704
22,GAGACCGCAACTGAAAAGTTGTTATCACTTGTCGTAAGACAATTTGCATGGGTTGAAGTTCTGCACGTAGAAGCAAAAGGC [C42A G47C],0.695
